Measurements as given in patent US20260055182A1 (CIS BIOPHARMA, published 2026).

Biological target: T1, L1-CAM recombinant protein (His Tag), human (human, UniProt P32004 20-1120)
T1 construct: Bought protein; also called CD171; human L1-CAM; not shown: His tag
Assay: ELISA, human L1-CAM coated at 2 µg/ml

T1 sequence (P32004 20-1120 limits assumed): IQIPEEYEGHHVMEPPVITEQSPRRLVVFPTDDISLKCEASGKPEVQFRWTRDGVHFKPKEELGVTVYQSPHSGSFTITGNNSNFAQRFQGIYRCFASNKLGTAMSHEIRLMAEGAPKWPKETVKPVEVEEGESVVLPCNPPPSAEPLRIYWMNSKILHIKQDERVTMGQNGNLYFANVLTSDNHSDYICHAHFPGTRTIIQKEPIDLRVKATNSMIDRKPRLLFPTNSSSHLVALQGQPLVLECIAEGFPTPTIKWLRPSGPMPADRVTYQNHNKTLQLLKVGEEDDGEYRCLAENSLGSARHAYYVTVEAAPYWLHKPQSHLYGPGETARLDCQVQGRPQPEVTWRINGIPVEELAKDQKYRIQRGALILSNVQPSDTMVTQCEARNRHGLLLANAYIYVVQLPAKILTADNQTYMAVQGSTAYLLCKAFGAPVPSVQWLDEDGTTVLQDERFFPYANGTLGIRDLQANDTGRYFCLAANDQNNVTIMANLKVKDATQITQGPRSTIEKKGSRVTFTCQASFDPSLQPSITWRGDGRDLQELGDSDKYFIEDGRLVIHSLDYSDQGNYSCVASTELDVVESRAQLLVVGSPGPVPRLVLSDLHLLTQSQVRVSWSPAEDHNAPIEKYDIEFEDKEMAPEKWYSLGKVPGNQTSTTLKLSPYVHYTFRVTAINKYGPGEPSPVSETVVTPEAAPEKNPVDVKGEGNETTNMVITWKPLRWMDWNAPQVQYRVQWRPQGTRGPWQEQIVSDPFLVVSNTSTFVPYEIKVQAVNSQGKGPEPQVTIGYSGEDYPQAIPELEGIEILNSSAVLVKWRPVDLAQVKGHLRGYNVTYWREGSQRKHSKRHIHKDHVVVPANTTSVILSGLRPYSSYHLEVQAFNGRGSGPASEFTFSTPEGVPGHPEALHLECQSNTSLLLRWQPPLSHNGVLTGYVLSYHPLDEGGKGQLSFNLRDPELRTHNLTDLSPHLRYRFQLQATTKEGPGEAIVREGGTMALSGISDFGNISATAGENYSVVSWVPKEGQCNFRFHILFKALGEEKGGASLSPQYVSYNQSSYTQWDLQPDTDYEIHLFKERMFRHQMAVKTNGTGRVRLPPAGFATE

Binder | EC50 [µg/mL]
CE7-variant1 (antibody, V domains shown, Human IgG1 kappa, L234A L235A P331S; also called CE7-12-VHA-1NL1-VLA; humanized variant 1) VH: QVQLVQSGAEVKKPGASVKVSCKASGYTFTGYWMHWVRQAPGQGLEWIGEINPSNGRTNYNERFKSRVTLTVDKSISTAYMELSRLRSDDTAVYFCARDYYGTSYNFDYWGQGTLVTVSS VL: DIQMTQSPSSLSASVGDRVTITCKANEDINNRLAWYQQKPGKAPKLLISGATNLVTGVPSRFSGSGSGKDYTLTISSLQPEDFATYYCQQYWSTPFTFGQGTKLEIKR | 0.0288
CE7-variant13 (antibody, V domains shown, Human IgG1 kappa, L234A L235A P331S; also called CE7-434-VHA-1NL1-VLA; humanized variant 13) VH: QVQLQQWGAGLLKPSETLSLTCAAYGYTFTGYWMHWIRQPPGKGLEWIGEINPSNGRTNYNERLKSRVTLSVDKSKNQASLKLSSVTAADTAVYFCARDYYGTSYNFDYWGQGTLVTVSS VL: DIQMTQSPSSLSASVGDRVTITCKANEDINNRLAWYQQKPGKAPKLLISGATNLVTGVPSRFSGSGSGKDYTLTISSLQPEDFATYYCQQYWSTPFTFGQGTKLEIKR | 0.05
CE7-variant5 (antibody, V domains shown, Human IgG1 kappa, L234A L235A P331S; also called CE7-12-VHA-315-VLA; humanized variant 5) VH: QVQLVQSGAEVKKPGASVKVSCKASGYTFTGYWMHWVRQAPGQGLEWIGEINPSNGRTNYNERFKSRVTLTVDKSISTAYMELSRLRSDDTAVYFCARDYYGTSYNFDYWGQGTLVTVSS VL: EIVMTQSPATLSVSPGERATLSCKANEDINNRLAWYQQKPGQAPRLLISGATNLVTGIPARFSGSGSGKEYTLTISSLQSEDFAVYYCQQYWSTPFTFGQGTKLEIKR | 0.0282
CE7-variant8 (antibody, V domains shown, Human IgG1 kappa, L234A L235A P331S; also called CE7-12-VHB-1NL1-VLB; humanized variant 8) VH: QVQLVQSGAEVKKPGASVKVSCKASGYTFTGYWMHWVRQAPGQGLEWIGEINPSNGRTNYNERFQGRVTLTVDKSISTAYMELSRLRSDDTAVYYCARDYYGTSYNFDYWGQGTLVTVSS VL: DIQMTQSPSSLSASVGDRVTITCRANEDINNRLAWYQQKPGKAPKLLISGATNLVTGVPSRFSGSGSGKDYTLTISSLQPEDFATYYCQQYWSTPFTFGQGTKLEIKR | 0.0129
CE7-variant24 (antibody, V domains shown, CE7-1-2-VHC + CE7-1-NL1-VLD; human IgG1 kappa, L234A L235A P331S N297A (aglycosylated); also called humanized variant 24) VH: QVQLVQSGAEVKKPGASVKVSCKASGYTFTGYWMHWVRQAPGQGLEWIGEINPSNGRTNYNEKFQGRVTLTVDKSISTAYMELSRLRSDDTAVYYCARDYYGTSYNFDYWGQGTLVTVSS VL: DIQMTQSPSSLSASVGDRVTITCRASQGINNRLAWYQQKPGKAPKLLISGASNLVSGVPSRFSGSGSGKDYTLTISSLQPEDFATYYCQQYWSTPFTFGQGTKLEIKR | 0.0396
CE7-variant12 (antibody, V domains shown, Human IgG1 kappa, L234A L235A P331S; also called CE7-12-VHB-315-VLB; humanized variant 12) VH: QVQLVQSGAEVKKPGASVKVSCKASGYTFTGYWMHWVRQAPGQGLEWIGEINPSNGRTNYNERFQGRVTLTVDKSISTAYMELSRLRSDDTAVYYCARDYYGTSYNFDYWGQGTLVTVSS VL: EIVMTQSPATLSVSPGERATLSCRANEDINNRLAWYQQKPGQAPRLLISGATNLVTGIPARFSGSGSGKEFTLTISSLQSEDFAVYYCQQYWSTPFTFGQGTKLEIKR | 0.0126
CE7-variant9 (antibody, V domains shown, Human IgG1 kappa, L234A L235A P331S; also called CE7-12-VHB-133-VLA; humanized variant 9) VH: QVQLVQSGAEVKKPGASVKVSCKASGYTFTGYWMHWVRQAPGQGLEWIGEINPSNGRTNYNERFQGRVTLTVDKSISTAYMELSRLRSDDTAVYYCARDYYGTSYNFDYWGQGTLVTVSS VL: DIQMTQSPSSLSASVGDRVTITCKANEDINNRLAWYQQKPGKAPKLLISGATNLVTGVPSRFSGSGSGKDYTLTISSLQPEDIATYYCQQYWSTPFTFGQGTKLEIKR | 0.0197
CE7-variant4 (antibody, Human IgG1 kappa, L234A L235A P331S; also called CE7-12-VHA-133-VLB; humanized variant 4) heavy: QVQLVQSGAEVKKPGASVKVSCKASGYTFTGYWMHWVRQAPGQGLEWIGEINPSNGRTNYNERFKSRVTLTVDKSISTAYMELSRLRSDDTAVYFCARDYYGTSYNFDYWGQGTLVTVSSASTKGPSVFPLAPSSKSTSGGTAALGCLVKDYFPEPVTVSWNSGALTSGVHTFPAVLQSSGLYSLSSVVTVPSSSLGTQTYICNVNHKPSNTKVDKKVEPKSCDKTHTCPPCPAPEAAGGPSVFLFPPKPKDTLMISRTPEVTCVVVDVSHEDPEVKFNWYVDGVEVHNAKTKPREEQYNSTYRVVSVLTVLHQDWLNGKEYKCKVSNKALPASIEKTISKAKGQPREPQVYTLPPSREEMTKNQVSLTCLVKGFYPSDIAVEWESNGQPENNYKTTPPVLDSDGSFFLYSKLTVDKSRWQQGNVFSCSVMHEALHNHYTQKSLSLSPGK light: not shown | 0.012
CE7-variant10 (antibody, V domains shown, Human IgG1 kappa, L234A L235A P331S; also called CE7-12-VHB-133-VLB; humanized variant 10) VH: QVQLVQSGAEVKKPGASVKVSCKASGYTFTGYWMHWVRQAPGQGLEWIGEINPSNGRTNYNERFQGRVTLTVDKSISTAYMELSRLRSDDTAVYYCARDYYGTSYNFDYWGQGTLVTVSS VL: DIQMTQSPSSLSASVGDRVTITCQANEDINNRLAWYQQKPGKAPKLLISGATNLVTGVPSRFSGSGSGKDYTFTISSLQPEDIATYYCQQYWSTPFTFGQGTKLEIKR | 0.0136
CE7-variant11 (antibody, V domains shown, Human IgG1 kappa, L234A L235A P331S; also called CE7-12-VHB-315-VLA; humanized variant 11) VH: QVQLVQSGAEVKKPGASVKVSCKASGYTFTGYWMHWVRQAPGQGLEWIGEINPSNGRTNYNERFQGRVTLTVDKSISTAYMELSRLRSDDTAVYYCARDYYGTSYNFDYWGQGTLVTVSS VL: EIVMTQSPATLSVSPGERATLSCKANEDINNRLAWYQQKPGQAPRLLISGATNLVTGIPARFSGSGSGKEYTLTISSLQSEDFAVYYCQQYWSTPFTFGQGTKLEIKR | 0.0148
CE7-variant22 (antibody, V domains shown, CE7-1-2-VHC + CE7-1-NL1-VLB; human IgG1 kappa, L234A L235A P331S N297A (aglycosylated); also called humanized variant 22) VH: QVQLVQSGAEVKKPGASVKVSCKASGYTFTGYWMHWVRQAPGQGLEWIGEINPSNGRTNYNEKFQGRVTLTVDKSISTAYMELSRLRSDDTAVYYCARDYYGTSYNFDYWGQGTLVTVSS VL: DIQMTQSPSSLSASVGDRVTITCRANEDINNRLAWYQQKPGKAPKLLISGATNLVTGVPSRFSGSGSGKDYTLTISSLQPEDFATYYCQQYWSTPFTFGQGTKLEIKR | 0.024
CE7-variant15 (antibody, V domains shown, Human IgG1 kappa, L234A L235A P331S; also called CE7-434-VHA-133-VLA; humanized variant 15) VH: QVQLQQWGAGLLKPSETLSLTCAAYGYTFTGYWMHWIRQPPGKGLEWIGEINPSNGRTNYNERLKSRVTLSVDKSKNQASLKLSSVTAADTAVYFCARDYYGTSYNFDYWGQGTLVTVSS VL: DIQMTQSPSSLSASVGDRVTITCKANEDINNRLAWYQQKPGKAPKLLISGATNLVTGVPSRFSGSGSGKDYTLTISSLQPEDIATYYCQQYWSTPFTFGQGTKLEIKR | 0.0112
CE7-variant14 (antibody, V domains shown, Human IgG1 kappa, L234A L235A P331S; also called CE7-434-VHA-1NL1-VLB; humanized variant 14) VH: QVQLQQWGAGLLKPSETLSLTCAAYGYTFTGYWMHWIRQPPGKGLEWIGEINPSNGRTNYNERLKSRVTLSVDKSKNQASLKLSSVTAADTAVYFCARDYYGTSYNFDYWGQGTLVTVSS VL: DIQMTQSPSSLSASVGDRVTITCRANEDINNRLAWYQQKPGKAPKLLISGATNLVTGVPSRFSGSGSGKDYTLTISSLQPEDFATYYCQQYWSTPFTFGQGTKLEIKR | 0.0157
CE7-variant21 (antibody, V domains shown, CE7-1-2-VHC + CE7-1-NL1-VLA; human IgG1 kappa, L234A L235A P331S N297A (aglycosylated); also called humanized variant 21) VH: QVQLVQSGAEVKKPGASVKVSCKASGYTFTGYWMHWVRQAPGQGLEWIGEINPSNGRTNYNEKFQGRVTLTVDKSISTAYMELSRLRSDDTAVYYCARDYYGTSYNFDYWGQGTLVTVSS VL: DIQMTQSPSSLSASVGDRVTITCKANEDINNRLAWYQQKPGKAPKLLISGATNLVTGVPSRFSGSGSGKDYTLTISSLQPEDFATYYCQQYWSTPFTFGQGTKLEIKR | 0.0299
CE7-variant20 (antibody, V domains shown, CE7-1-2-VHB + CE7-1-NL1-VLD; human IgG1 kappa, L234A L235A P331S N297A (aglycosylated); also called humanized variant 20) VH: QVQLVQSGAEVKKPGASVKVSCKASGYTFTGYWMHWVRQAPGQGLEWIGEINPSNGRTNYNERFQGRVTLTVDKSISTAYMELSRLRSDDTAVYYCARDYYGTSYNFDYWGQGTLVTVSS VL: DIQMTQSPSSLSASVGDRVTITCRASQGINNRLAWYQQKPGKAPKLLISGASNLVSGVPSRFSGSGSGKDYTLTISSLQPEDFATYYCQQYWSTPFTFGQGTKLEIKR | 0.0317
CE7-variant19 (antibody, V domains shown, CE7-1-2-VHB + CE7-1-NL1-VLC; human IgG1 kappa, L234A L235A P331S N297A (aglycosylated); also called humanized variant 19) VH: QVQLVQSGAEVKKPGASVKVSCKASGYTFTGYWMHWVRQAPGQGLEWIGEINPSNGRTNYNERFQGRVTLTVDKSISTAYMELSRLRSDDTAVYYCARDYYGTSYNFDYWGQGTLVTVSS VL: DIQMTQSPSSLSASVGDRVTITCRANEDINNRLAWYQQKPGKAPKLLISGASNLVSGVPSRFSGSGSGKDYTLTISSLQPEDFATYYCQQYWSTPFTFGQGTKLEIKR | 0.0335
CE7-variant2 (antibody, V domains shown, Human IgG1 kappa, L234A L235A P331S; also called CE7-12-VHA-1NL1-VLB; humanized variant 2) VH: QVQLVQSGAEVKKPGASVKVSCKASGYTFTGYWMHWVRQAPGQGLEWIGEINPSNGRTNYNERFKSRVTLTVDKSISTAYMELSRLRSDDTAVYFCARDYYGTSYNFDYWGQGTLVTVSS VL: DIQMTQSPSSLSASVGDRVTITCRANEDINNRLAWYQQKPGKAPKLLISGATNLVTGVPSRFSGSGSGKDYTLTISSLQPEDFATYYCQQYWSTPFTFGQGTKLEIKR | 0.0128
CE7-variant6 (antibody, V domains shown, Human IgG1 kappa, L234A L235A P331S; also called CE7-12-VHA-315-VLB; humanized variant 6) VH: QVQLVQSGAEVKKPGASVKVSCKASGYTFTGYWMHWVRQAPGQGLEWIGEINPSNGRTNYNERFKSRVTLTVDKSISTAYMELSRLRSDDTAVYFCARDYYGTSYNFDYWGQGTLVTVSS VL: EIVMTQSPATLSVSPGERATLSCRANEDINNRLAWYQQKPGQAPRLLISGATNLVTGIPARFSGSGSGKEFTLTISSLQSEDFAVYYCQQYWSTPFTFGQGTKLEIKR | 0.0255
CE7-variant25 (antibody, V domains shown, CE7-1-2-VHD + CE7-1-NL1-VLA; human IgG1 kappa, L234A L235A P331S N297A (aglycosylated); also called humanized variant 25) VH: QVQLVQSGAEVKKPGASVKVSCKASGYTFTGYWMHWVRQAPGQGLEWMGEINPSNGRTNYNEKFQGRVTLTVDKSISTAYMELSRLRSDDTAVYYCARDYYGTSYNFDYWGQGTLVTVSS VL: DIQMTQSPSSLSASVGDRVTITCKANEDINNRLAWYQQKPGKAPKLLISGATNLVTGVPSRFSGSGSGKDYTLTISSLQPEDFATYYCQQYWSTPFTFGQGTKLEIKR | 0.0272
CE7-variant23 (antibody, V domains shown, CE7-1-2-VHC + CE7-1-NL1-VLC; human IgG1 kappa, L234A L235A P331S N297A (aglycosylated); also called humanized variant 23) VH: QVQLVQSGAEVKKPGASVKVSCKASGYTFTGYWMHWVRQAPGQGLEWIGEINPSNGRTNYNEKFQGRVTLTVDKSISTAYMELSRLRSDDTAVYYCARDYYGTSYNFDYWGQGTLVTVSS VL: DIQMTQSPSSLSASVGDRVTITCRANEDINNRLAWYQQKPGKAPKLLISGASNLVSGVPSRFSGSGSGKDYTLTISSLQPEDFATYYCQQYWSTPFTFGQGTKLEIKR | 0.037
